In experiment [1] the target is T1, AceK (isocitrate dehydrogenase kinase/phosphatase) (Escherichia coli, UniProt P11071).
T1 construct: hexahistidine-tagged, expressed in E. coli BL21 (DE3), Ni-NTA and Superdex200; 66 kDa
As to the kind of experiment: X-ray crystallography. The class given is binding. To be noted: allosteric site at interface of kinase and regulatory domains; complex with ADP and Mn2+; AMP not listed among crystallisation additions.

In experiment [2] the target is T2, phospho-IDH (isocitrate dehydrogenase phosphorylated by AceK) (E. coli) (UniProt P08200).
T2 sequence (chain, phosphorylated by AceK (residue not printed)): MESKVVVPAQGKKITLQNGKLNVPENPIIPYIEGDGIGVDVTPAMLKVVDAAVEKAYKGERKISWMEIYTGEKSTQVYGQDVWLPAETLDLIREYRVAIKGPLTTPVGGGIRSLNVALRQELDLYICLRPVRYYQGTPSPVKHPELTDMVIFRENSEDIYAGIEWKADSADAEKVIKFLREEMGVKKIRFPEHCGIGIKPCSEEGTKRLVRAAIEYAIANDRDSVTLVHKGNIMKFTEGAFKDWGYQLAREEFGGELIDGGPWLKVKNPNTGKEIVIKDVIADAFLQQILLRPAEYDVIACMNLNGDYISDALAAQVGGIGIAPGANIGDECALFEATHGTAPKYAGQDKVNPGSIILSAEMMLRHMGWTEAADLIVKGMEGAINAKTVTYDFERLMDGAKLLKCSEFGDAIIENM

We go through five molecules from paper PMC6591243, “Characterization of metal binding of bifunctional kinase/phosphatase AceK and implication in activity modulation” (Scientific Reports, 2019).

Residue numbers refer to the chain shown, from its start. Names and notes keep the numbering of the source.

Take `Nc1ncnc2c1ncn2[C@@H]1O[C@H](COP(=O)(O)O)[C@@H](O)[C@H]1O` [AMP]: in experiment [1], the X-ray crystallography result was “a buried ADP molecule and a bound AMP at the interface of the two domains”.

B1: isocitrate dehydrogenase kinase/phosphatase (AceK) wild-type (enzyme)
chain: MPRGLELLIAQTILQGFDAQYGRFLEVTSGAQQRFEQADWHAVQQAMKNRIHLYDHHVGLVVEQLRCITNGQSTDAAFLLRVKEHYTRLLPDYPRFEIAESFFNSVYCRLFDHRSLTPERLFIFSSQPERRFRTIPRPLAKDFHPDHGWESLLMRVISDLPLRLRWQNKSRDIHYIIRHLTETLGTDNLAESHLQVANELFYRNKAAWLVGKLITPSGTLPFLLPIHQTDDGELFIDTCLTTTAEASIVFGFARSYFMVYAPLPAALVEWLREILPGKTTAELYMAIGCQKHAKTESYREYLVYLQGCNEQFIEAPGIRGMVMLVFTLPGFDRVFKVIKDRFAPQKEMSAAHVRACYQLVKEHDRVGRMADTQEFENFVLEKRHISPALMELLLQEAAEKITDLGEQIVIRHLYIERRMVPLNIWLEQVEGQQLRDAIEEYGNAIRQLAAANIFPGDMLFKNFGVTRHGRVVFYDYDEICYMTEVNFRDIPPPRYPEDELASEPWYSVSPGDVFPEEFRHWLCADPRIGPLFEEMHADLFRADYWRALQNRIREGHVEDVYAYRRRQRFSVRYGEMLF
With B1, in experiment [2], the Km for phospho-IDH, phosphatase kinetics (20 mM Hepes pH 7.0, 2.0 mM Mn2+, 2.0 mM ADP, 37 °C) is 0.376 μM.

B2: AceK D475A (enzyme)
chain: B1 chain with D475A
Take B2: in experiment [2], the Km for phospho-IDH, phosphatase kinetics (20 mM Hepes pH 7.0, 2.0 mM Mn2+, 2.0 mM ADP, 37 °C) was found to be 1.95 μM.

B3: AceK D477A (enzyme)
chain: B1 chain with D477A
For B3, the Km for phospho-IDH, phosphatase kinetics (20 mM Hepes pH 7.0, 2.0 mM Mn2+, 2.0 mM ADP, 37 °C) in experiment [2] stood at 16.1 μM.

B4: AceK D477K (enzyme)
chain: B1 chain with D477K
Regarding B4, in experiment [2], the Km for phospho-IDH, phosphatase kinetics (20 mM Hepes pH 7.0, 2.0 mM Mn2+, 2.0 mM ADP, 37 °C) was determined as 12.2 μM.
